Measured values: patent US20250326818A1 (UNIVERSIT T BASEL, published 2025)
Positions count from the first letter of the chain named.

Key:
Assay in all cases: BLI (Octet), biotinylated CD123 ECD captured on streptavidin tips, hIL3 as analyte, level at 250 s normalised to loading
CD123 ECD R84T = target: T1, CD123 ECD R84T (human, UniProt P26951 19-305)
T1 construct: Recombinant ECD
T1 sequence: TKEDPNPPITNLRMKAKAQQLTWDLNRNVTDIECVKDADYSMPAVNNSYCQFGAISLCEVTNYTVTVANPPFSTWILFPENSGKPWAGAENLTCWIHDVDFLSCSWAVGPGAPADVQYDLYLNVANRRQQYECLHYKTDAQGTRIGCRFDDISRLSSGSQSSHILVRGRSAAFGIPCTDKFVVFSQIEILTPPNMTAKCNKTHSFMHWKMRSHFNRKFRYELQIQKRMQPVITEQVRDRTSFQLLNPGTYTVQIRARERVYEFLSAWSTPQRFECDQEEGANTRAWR
Procedure: (§1) Binding of hIL3 (SinoBiological, PN: 11858-H08H) (analyte) to CD123 ECD wt. and variants (ligands) was performed using Streptavidin capture biosensor (SA) (Sartorius, PN: 18-5019). CD123 ECD wt. and variants were biotinylated using Biotinylation kit Type B (Abeam, PN: ab201796) following manufacturer instructions. Biotinylated CD123 ECD wt. and variants (ligands) were captured on SA tips for 1000 s to achieve a nm shift of 1.5 to 2 nm. Analyte hIL3 was titrated at 7 concentrations from 500 to 7.8 nM. Association to analyte was monitored for 300 s and dissociation for 120 s. Buffer only well was used as reference. No regeneration was performed, and a new set of tips was used for each biotinylated captured ligand. Data were analyzed using the Octet Data Analysis software HT 12.0. Due to the fast on/off nature of the interaction data were analyzed using Steady state analysis. Qualitative representation in FIG. 11 binding level were taken at 250 s association for all concentrations.

CD123 ECD E51T = target: T2, CD123 ECD E51T (human, UniProt P26951 19-305)
T2 construct: Recombinant ECD
T2 sequence: T1 sequence with E33T, T66R
Procedure: as §1

CD123 ECD S59R = target: T3, CD123 ECD S59R (human, UniProt P26951 19-305)
T3 construct: Recombinant ECD
T3 sequence: T1 sequence with S41R, T66R
Procedure: as §1

CD123 ECD R84Q = target: T4, CD123 ECD R84Q (human, UniProt P26951 19-305)
T4 construct: Recombinant ECD
T4 sequence: T1 sequence with T66Q
Procedure: as §1

CD123 ECD E51A = target: T5, CD123 ECD E51A (human, UniProt P26951 19-305)
T5 construct: Recombinant ECD
T5 sequence: T1 sequence with E33A, T66R
Procedure: as §1

CD123 ECD S59P = target: T6, CD123 ECD S59P (human, UniProt P26951 19-305)
T6 construct: Recombinant ECD
T6 sequence: T1 sequence with S41P, T66R
Procedure: as §1

Measured: binding result

B1: hIL3 (ligand, human, UniProt P08700 20-152, looked up)
chain: APMTQTTPLKTSWVNCSNMIDEIITHLKQPPLPLLDFNNLNGEDQDILMENNLRRPNLEAFNRAVKSLQNASAIESILKNLLPCLPLATAAPTRHPIHIKDGDWNEFRRKLTFYLKTLENAQAQQTTLSLAIF
notes: also called Interleukin-3
binds: all assays above
